T1: human TREM2 (human) (UniProt Q9NZC2)
T1 sequence (looked up): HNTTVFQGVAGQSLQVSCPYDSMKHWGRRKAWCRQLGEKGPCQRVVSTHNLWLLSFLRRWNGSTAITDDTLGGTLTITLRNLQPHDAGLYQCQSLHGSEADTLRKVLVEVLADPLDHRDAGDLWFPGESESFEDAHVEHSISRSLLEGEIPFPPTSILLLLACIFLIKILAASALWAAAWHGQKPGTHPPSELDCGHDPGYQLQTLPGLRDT


Key:
[1] = target: T1, human TREM2 (human); assay: 2nd screen, 2 nM Ab
[2] = target: T1, human TREM2 (human); assay: 1st screen, 10 nM Ab
[3] = target: T1, human TREM2 (human); assay: 2nd screen, 10 nM Ab

Row | Binder | Binding Signal (fold over 6E7 parental antibody) [1] [fold] | Binding Signal (fold over 6E7 parental antibody) [2] [fold] | Binding Signal (fold over 6E7 parental antibody) [3] [fold]
1 | 6E7 variant V77 (antibody, V domains shown) VH: EVQLVQSGAEVKKPGESLKISCKGSGYSFTSYWIAWVRQMPGKGLEWMGIIYPGDSDTRYSPSFQGQVTISADKSISTAYLQWSSLKASDTAMYFCARQRTFYYDSSDYFDYWGQGTLVTVSS VL: DIQMTQSPSSVSASVGDRVTITCRASQGISSWLAWYQQKPGKAPKLLIYAASSRQNGVPSRFSGSGSGTDFTLTISSLQPEDFATYFCQQADSFPRTFGQGTKLEIK | 0.83 | 1.43 | 1.38
2 | 6E7 variant V89 (antibody, V domains shown) VH: EVQLVQSGAEVKKPGESLKISCKGSGYSFTSYWIAWVRQMPGKGLEWMGIIYPGDSDTRYSPSFQGQVTISADKSISTAYLQWSSLKASDTAMYFCARQRTFYYDSSDYFDYWGQGTLVTVSS VL: DIQMTQSPSSVSASVGDRVTITCRASQGISSWLAWYQQKPGKAPKLLIYAASSLQNGVPSRFSGSGSGTDFTLTISSLQPEDFATYFCQQADSHPRTFGQGTKLEIK | 0.94 | 1.33 | 1.46
3 | 6E7 variant V87 (antibody, V domains shown) VH: EVQLVQSGAEVKKPGESLKISCKGSGYSFRSYWIAWVRQMPGKGLEWMGIIYPGDSDVRYSPDFQGQVTISADKSISTAYLQWSSLKASDTAMYFCARSRTFYYDSSDYFDYWGQGTLVTVSS VL: DIQMTQSPSSVSASVGDRVTITCRASQGISSWLAWYQQKPGKAPKLLIYAASSLQWGVPSRFSGSGSGTDFTLTISSLQPEDFATYFCQQADSFPRTFGQGTKLEIK | 4.86 | 3.84 | 3.93
4 | 6E7 variant V85 (antibody, V domains shown) VH: EVQLVQSGAEVKKPGESLKISCKGSGYSFRSYWIAWVRQMPGKGLEWMGTIYPGDSDTRYSPSFQGQVTISADKSISTAYLQWSSLKASDTAMYFCARSRTFYYDSSDYFDYWGQGTLVTVSS VL: DIQMTQSPSSVSASVGDRVTITCRASQGISSWLAWYQQKPGKAPKLLIYAASSRQNGVPSRFSGSGSGTDFTLTISSLQPEDFATYFCQQADSFPRTFGQGTKLEIK | 5.41 | 5.41 | 5.37
5 | 6E7 variant V3 (antibody, V domains shown) VH: EVQLVQSGAEVKKPGESLKISCKGSGYSFASYWIAWVRQMPGKGLEWMGIIYPGDSDTRYSPSFQDQVTISADKSISTAYLQWSSLKASDTAMYFCARGRTFYYDSSDYFDYWGQGTLVTVSS VL: DIQMTQSPSSVSASVGDRVTITCRASQGISSWLAWYQQKPGKAPKLLIYAASSRQNGVPSRFSGSGSGTDFTLTISSLQPEDFATYFCQQADRFPRTFGQGTKLEIK | 1.95 | 1.97 | 2.24
6 | 6E7 variant V88 (antibody, V domains shown) VH: EVQLVQSGAEVKKPGESLKISCKGSGYSFGSYWIAWVRQMPGKGLEWMGIIYPGDSDTRYSPSFQGQVTISADKSISTAYLQWSSLKASDTAMYFCARQRTFYYDSSDYFDYWGQGTLVTVSS VL: DIQMTQSPSSVSASVGDRVTITCRASQGISSWLAWYQQKPGKAPKLLIYAASRLQRGVPSRFSGSGSGTDFTLTISSLQPEDFATYFCQQADSSPRTFGQGTKLEIK | 5.57 | 4.92 | 5.3
7 | 6E7 variant V64 (antibody, V domains shown) VH: EVQLVQSGAEVKKPGESLKISCKGSGYSFQSYWIAWVRQMPGKGLEWMGIIYPGDSDTRYSPSFQGQVTISADKSISTAYLQWSSLKASDTAMYFCARGRTFYYDSSDYFDYWGQGTLVTVSS VL: DIQMTQSPSSVSASVGDRVTITCRASQGISSWLAWYQQKPGKAPKLLIYAASSLANGVPSRFSGSGSGTDFTLTISSLQPEDFATYFCQQADSYPRTFGQGTKLEIK | 4.88 | 5.41 | 5.48
8 | 6E7 variant V4 (antibody, V domains shown) VH: EVQLVQSGAEVKKPGESLKISCKGSGYSFGSYWIAWVRQMPGKGLEWMGIIYPGDSDTRVSPSFQGQVTISADKSISTAYLQWSSLKASDTAMYFCARSRTFYYDSSDYFDYWGQGTLVTVSS VL: DIQMTQSPSSVSASVGDRVTITCRASQGISSWLAWYQQKPGKAPKLLIYAASRLQNGVPSRFSGSGSGTDFTLTISSLQPEDFATYFCQQADSYPRTFGQGTKLEIK | 5.88 | 6 | 5.51
9 | 6E7 variant V84 (antibody, V domains shown) VH: EVQLVQSGAEVKKPGESLKISCKGSGYGFTSYWIAWVRQMPGKGLEWMGIIYPGDSDTRYSPSFQGQVTISADKSISTAYLQWSSLKASDTAMYFCARQRTFYYDSSDYSDYWGQGTLVTVSS VL: DIQMTQSPSSVSASVGDRVTITCRASQGISSWLAWYQQKPGKAPKLLIYGASSLQNGVPSRFSGSGSGTDFTLTISSLQPEDFATYFCQQADSFPRTFGQGTKLEIK | 1.45 | 1.44 | 1.62

Continued, values first:

Row | Binding Signal (fold over 6E7 parental antibody) [1] [fold] | Binding Signal (fold over 6E7 parental antibody) [2] [fold] | Binding Signal (fold over 6E7 parental antibody) [3] [fold] | Binder
10 | 4.91 | 3.76 | 3.71 | 6E7 variant V63 (antibody, V domains shown) VH: EVQLVQSGAEVKKPGESLKISCKGSGYSFRSYWIAWVRQMPGKGLEWMGIIYPGDSDTRYSPSFQGQVTISADKSISTAYLQWSSLKASDTAMYFCARSRTFYYDSSDYFDYWGQGTLVTVSS VL: DIQMTQSPSSVSASVGDRVTITCRASQGISSWLAWYQQKPGKAPKLLIYAASSLQRGVPSRFSGSGSGTDFTLTISSLQPEDFATYFCQQADRFPRTFGQGTKLEIK
11 | 2.23 | 2.55 | 2.9 | 6E7 variant V2 (antibody, V domains shown) VH: EVQLVQSGAEVKKPGESLKISCKGSGSSFTSYWIAWVRQMPGKGLEWMGIIYPGDGDTRYSPSFQGQVTISADKSISTAYLQWSSLKASDTAMYFCARSRTFYYDSSDYFDYWGQGTLVTVSS VL: DIQMTQSPSSVSASVGDRVTITCRASQGISSWLAWYQQKPGKAPKLLIYAASSRQNGVPSRFSGSGSGTDFTLTISSLQPEDFATYFCQQADRFPRTFGQGTKLEIK
12 | 5.17 | 4.8 | 5.02 | 6E7 variant V86 (antibody, V domains shown) VH: EVQLVQSGAEVKKPGESLKISCKGSGYSFGSYWLAWVRQMPGKGLEWMGIIYPGDSDTRYSPSFEGQVTISADKSISTAYLQWSSLKASDTAMYFCARSRTFYYDSSDYFDYWGQGTLVTVSS VL: DIQMTQSPSSVSASVGDRVTITCRASQGISSWLAWYQQKPGKAPKLLIYAASSRQNGVPSRFSGSGSGTDFTLTISSLQPEDFATYFCQQADSFPRTFGQGTKLEIK
13 | 1.29 | 2.05 | 2.75 | 6E7 variant V65 (antibody, V domains shown) VH: EVQLVQSGAEVKKPGESLKISCKGSGYSFTSYWIAWVRQMPGKGLEWMGIIYPGDSDTRYSPSFQGQVTISADKSISTAYLQWSSLKASDTAMYFCARSRTFYYDSSDYFDYWGQGTLVTVSS VL: DIQMTQSPSSVSASVGDRVTITCRASQGISSWLAWYQQKPGKAPKLLIYAASSLQNGVPSRFSGSGSGTDFTLTISSLQPEDFATYFCQQADSFPRTFGQGTKLEIK
14 | 3.74 | 4.64 | 4.52 | 6E7 variant V75 (antibody, V domains shown) VH: EVQLVQSGAEVKKPGESLKISCKGSGYSFTSYWIAWVRQMPGKGLEWMGIIYPGDSDTRYSPSFQGQVTISADKSISTAYLQWSSLKASDTAMYFCARGRTFYYDSSDYFDYWGQGTLVTVSS VL: DIQMTQSPSSVSASVGDRVTITCRASQGISSWLAWYQQKPGKAPKLLIYAASSLQAGVPSRFSGSGSGTDFTLTISSLQPEDFATYFCQQADSYPRTFGQGTKLEIK
15 | 4.17 | 5.12 | 5.44 | 6E7 variant V73 (antibody, V domains shown) VH: EVQLVQSGAEVKKPGESLKISCKGSGYSFGSYWIAWVRQMPGKGLEWMGIIYPGDSDTRYSPGFQGQVTISADKSISTAYLQWSSLKASDTAMYFCARGRTFYYDSSDYFDYWGQGTLVTVSS VL: DIQMTQSPSSVSASVGDRVTITCRASQGISSWLAWYQQKPGKAPKLLIYAASSRQNGVPSRFSGSGSGTDFTLTISSLQPEDFATYFCQQADSYPRTFGQGTKLEIK
16 | 2.54 | 3.94 | 4.01 | 6E7 variant V74 (antibody, V domains shown) VH: EVQLVQSGAEVKKPGESLKISCKGSGYSFASYWIAWVRQMPGKGLEWMGIIYPGDSDVRYSPSFQGQVTISADKSISTAYLQWSSLKASDTAMYFCARGRTFYYDSSDYFDYWGQGTLVTVSS VL: DIQMTQSPSSVSASVGDRVTITCRASQGISSWLAWYQQKPGKAPKLLIYAASSLQLGVPSRFSGSGSGTDFTLTISSLQPEDFATYFCQQADSFPRTFGQGTKLEIK
17 | 4.34 | 4.57 | 4.93 | 6E7 variant V76 (antibody, V domains shown) VH: EVQLVQSGAEVKKPGESLKISCKGSGYSFGSYWIAWVRQMPGKGLEWMGIIYPGDSDTRYSPEFQGQVTISADKSISTAYLQWSSLKASDTAMYFCARQRTFYYDSSDYSDYWGQGTLVTVSS VL: DIQMTQSPSSVSASVGDRVTITCRASQGISSWLAWYQQKPGKAPKLLIYAASSLQKGVPSRFSGSGSGRDFTLTISSLQPEDFATYFCQQADSFPRTFGQGTKLEIK

— US20260250381A1
